Columns and labels:
[1] = target: C3a (Homo sapiens (Human)) (UniProt P01024); assay: cell-based or functional assay
[2] = target: C5a (Homo sapiens (Human)) (UniProt P01031); assay: cell-based or functional assay
C5a (Homo sapiens (Human)), sequence (P01031 678-751 limits assumed): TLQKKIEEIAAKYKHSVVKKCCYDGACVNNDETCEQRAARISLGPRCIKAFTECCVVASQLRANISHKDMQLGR

C3a (Homo sapiens (Human)), sequence (P01024 672-748 limits assumed): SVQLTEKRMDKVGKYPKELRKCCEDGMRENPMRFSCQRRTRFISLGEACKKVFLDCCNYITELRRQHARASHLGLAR

% Arg released (Arg LC-MS/MS, supernatant) [1]: 72%
% Arg released (Arg LC-MS/MS, supernatant) [2]: 14%
Substance: TAFI activation peptide-CPN1-HSA (enzyme)
